Measurements: patent publication US20070054863A1 (SANFORD BURNHAM MEDICAL RESEARCH INSTITUTE, published 2007)
[ ]: non-standard residue; d: D form. The star is where a group is joined. FITC = O=C1OC2(c3ccc(O)cc3Oc3cc(O)ccc32)c2ccc(NC(=S)*)cc21; Ahx = NCCCCCC(=O)O

Columns and labels:
Nur77 = target: T1, Nur77 (Homo sapiens (Human), UniProt P22736 1-598); assay: not described
T1 construct: also called TR3; NGFI-B

Bcl-2 [1] = target: T2, Bcl-2 (UniProt P10415 1-239); assay: not described at this place
T2 construct: Cellular Bcl-2 in co-immunoprecipitation and immunostaining assays; also called endogenous Bcl-2
T2 sequence (P10415 whole entry): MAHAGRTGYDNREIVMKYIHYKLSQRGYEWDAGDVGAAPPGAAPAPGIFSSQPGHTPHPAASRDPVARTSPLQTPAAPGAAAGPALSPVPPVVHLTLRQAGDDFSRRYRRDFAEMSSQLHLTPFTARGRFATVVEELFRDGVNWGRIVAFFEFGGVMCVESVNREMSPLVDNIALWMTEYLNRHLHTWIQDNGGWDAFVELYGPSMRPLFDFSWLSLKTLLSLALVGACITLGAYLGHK

GST-Bcl-2 [2] = target: T3, GST-Bcl-2 (UniProt P08515 1-218 = GST; P10415 1-218); assay: circular dichroism of GST-Bcl-2 with peptide, non-linear regression, one-site-binding model
T3 construct: Bacterially expressed, purified GST fusion used in FP, CD and in vitro immunoprecipitation; also called purified GST-Bcl-2 protein; bacterially expressed Bcl-2
T3 sequence (P08515 1-218, tags or fused parts left off): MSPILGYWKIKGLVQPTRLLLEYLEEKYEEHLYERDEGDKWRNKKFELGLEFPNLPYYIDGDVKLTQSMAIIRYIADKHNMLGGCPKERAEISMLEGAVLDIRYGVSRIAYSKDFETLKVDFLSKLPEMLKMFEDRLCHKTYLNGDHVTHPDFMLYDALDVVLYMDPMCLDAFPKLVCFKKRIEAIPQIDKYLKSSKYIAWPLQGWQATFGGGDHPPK
Description: We then explored whether the Bcl-2 conformational change by Bcl-2 was a direct consequence of Nur77 binding. Experiments were performed to determine whether NuBCPs could induce a conformational change of bacterially expressed Bcl-2. To this end, the ability of purified GST-Bcl-2 protein to react with anti-Bcl-2/BH3 antibody in the presence of NuBCP was analyzed by immunoprecipitation assay. […] In contrast, NuBCP-9, D-NuBCP-9 and NuBCP-9/AA had no effect on CD spectra for GST or Bcl-XL (FIGS. 9-11). Thus, the NuBCP-induced Bcl-2 conformational change observed in cells can be accounted for by direct binding of NuBCPs to Bcl-2.
Circular dichroism (CD) spectroscopy. Stock solutions of 3 mM peptide in 30% acetonitrile/water were added to 0.5 mL of 2 μM purified GST-proteins in PBS, pH 7.6. CD spectra were obtained in a 0.2 cm pathlength cell at 20° C. using an AVIV 62 DS spectropolarimeter for a wavelength range from 200 to 260 nm with a step size of 1 nm averaged for 5 sec. Three spectra were corrected for background and averaged for each sample. The Kd was determined using nonlinear regression analysis for a one-site-binding model (χ2>0.98). Stoichiometry was determined from a […] (Jones, G. et al. 2002 Tet. Let. 43 :6079-6082).

GST = target: T4, GST (UniProt P08515 1-218 = GST); assay: fluorescence polarization
T4 construct: Control protein in FP and CD assays; also called GST protein
T4 sequence (P08515 whole entry): as the sequence (P08515 1-218, tags or fused parts left off) above
Description: (§1) Fluorescence polarization (FP) analysis was used to determine whether NuBCPs interacted directly with Bcl-2. […] GST-Bcl-2, but not GST-Bcl-XL or GST, induced a concentration-dependent FP of FITC-NuBCP-9-r8 and FITC-D-NuBCP-9-r8, while FITC-NuBCP-9/AA-r8 was little affected (FIG. 2C-E). […] Thus, NuBCP-9 and D-NuBCP-9 bind directly and competitively to Bcl-2.
(§2) Fluorescence polarization (FP) assays. GST-Bcl-2, GST-Bcl-XL, or GST protein was briefly incubated with FITC-conjugated peptide with or without competitors in Greiner Fluotrac 600 96-well microplates. Fluorescence polarization was recorded using an Analyst HT 96-384 microplate reader (Molecular Devices, Sunnyvale, Calif.) with excitation wavelength set at 485 nm and dynamic polarizer for emission at 530 nm.

GST-Bcl-XL = target: T5, GST-Bcl-XL (UniProt P08515 1-218 = GST; Q07817 1-211); assay: fluorescence polarization
T5 construct: Control protein in FP and CD assays
T5 sequence (P08515 1-218, tags or fused parts left off): as above
Description: as §1, §2

Bcl-2 [3] = target: T2, Bcl-2; assay: immunoprecipitation
GST-Bcl-2 [4] = target: T3, GST-Bcl-2; assay: fluorescence polarization competition
Description: as §1, §2

B1: Bcl-B (other, UniProt Q9HD36 1-204, looked up)
chain: MVDQLRERTTMADPLRERTELLLADYLGYCAREPGTPEPAPSTPEAAVLRSAAARLRQIHRSFFSAYLGYPGNRFELVALMADSVLSDSPGPTWGRVVTLVTFAGTLLERGPLVTARWKKWGFQPRLKEQEGDVARDCQRLVALLSSRLMGQHRAWLQAQGGWDGFCHFFRTPFPLAFWRKQLVQAFLSCLLTTAFIYLWTRLL
binding result (Nur77): binds

B2: Nur77 fragment DC-3 (other)
chain: GLVLHRLQCARGFGDWIDSILAFSRSLHSLLVDVPAFACLSALVLITDRHGLQEPRRVEELQNRIASCLKEHVAAVAGEPQPASCLSRLLGKLPELRTLCTQGLQRIFYLKLEDLVPPPPIIDKIFMDTLPF
binding result (Bcl-2 [1]): binds

Ac-FSRSLHSLL-NH2 [NuBCP-9 (unconjugated)]
Kd (GST-Bcl-2 [2]): 2100 nM

B3: FITC-NuBCP-9-r8 (peptide)
peptide: {FITC}-FSRSLHSLLG[Ahx][dR][dR][dR][dR][dR][dR][dR][dR]-NH2
modifications: not fully specified
notes: The point of attachment of FITC is not described beyond the name; also called FITC-L-NuBCP-9-r8
binding result (GST): no binding
binding result (GST-Bcl-XL): no binding

B4: NuBCP-20-r8 (peptide)
peptide: GDWIDSILAFSRSLHSLLVDKKCXRRRRRRRR
modifications: not fully specified; N-terminal acetyl; C-terminal Cys thiol linked to chloroacetylated 6-aminohexanoyl (X); eight D-arginines (r8)
notes: also called NuBCP-20-r8-peptide; TR3 peptide
binding result (Bcl-2 [3]): binds

Ac-ASRSLHSLA-NH2 (Unconjugated form) [NuBCP-9/AA (unconjugated)]
binding result (GST-Bcl-2 [4]): no binding

B5: Bfl-1 (other, UniProt Q16548 1-175, looked up)
chain: MTDCEFGYIYRLAQDYLQCVLQIPQPGSGPSKTSRVLQNVAFSVQKEVEKNLKSCLDNVNVVSVDTARTLFNQVMEKEFEDGIINWGRIVTIFAFEGILIKKLLRQQIAPDVDTYKEISYFVAEFIMNNTGEWIRQNGGWENGFVKKFEPKSGWMTFLEVTGKICEMLSLLKQYC
binding result (Nur77): binds
